Reference: the nanobody polyreactivity screen of Harvey et al. (2022)

Test: yeast display, Sf9 membrane polyspecificity reagent, FACS + sequencing; frameworks hold sequencing errors
How it was run: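 After 36–48 hours of galactose induction, yeast (Saccharomyces cerevisiae BJ5465) displaying a synthetic nanobody library were stained at 4 °C for 1 hour with 10% biotinylated, detergent-solubilized Sf9 membrane reagent. Streptavidin microbeads enriched the stained cells before FACS sorting into low and high (top ~1%) gates on anti-HA and streptavidin fluorescence. Each clone's polyreactivity label reflects its gate of origin.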

Row | Sequence | polyreactivity (PSR sort gate)
1 | QVQLVESGGGLFQAGGSLRLSCAASGRIFYSNAMGWYRQAPGKERELVASISPNSGPTYYADSVKGRFTISRDNAKNTVYLQMNSLKPEVTAVYYCAARGGYYQDGLVTGVAEYGYCGQGTQVTVSS | low polyreactivity
2 | QVQLVESGGGLVQAGGSLRLSCAASGSIVYYYGMGWYRPAPGKETELVAAISTGGSTYYADSVKGRFTISRDKAKKTVYLQMNSLKPEDTADFYCSADYYTQWQTRYDYWGQGTQVTVSS | low polyreactivity
3 | QVQLVESGGGLVQAGGSLRLSCAASGRIFIDYAMAWYRQAPGKESELVATNTSSGGSTYYADSVKGRFTISRDNAKNTVYLLMNSLNPEDTAVYFCNKEGSYDYDYWGQGTQVTVSS | low polyreactivity
4 | QVQLVESGGGLVQAGGSLRLSCAASGRTFASYAMGWYRQAPGKERELVAGITSGGNTYYADSVKGRFTISRDNAKNTVYLQMNSLKPEDTAVFYCAADGVYKGWPTHYDYWGHGTQVTVSS | high polyreactivity
5 | QDQLVDSGGGLVQAGGSLRLSCAASGTFFMGWYRQAPGKERELVAGISIYDGSTYYADSVKGRFTISRDNAKNTVYLQMNRLKPEDTAVYYCAAEFYPTTGFDYWGQGTQVTVSS | low polyreactivity
6 | QVQLEESGGGLVQAGGSLRLSCAASVFPYYAMRWYRQATGKERELVAAITWSGADTYYADSVKGRFTISRDNAKNTVYLQMNSLKPEDTAVYYCAAEYSPIRDYEYWGQGTQVTVSS | low polyreactivity
7 | QVQLQESGGGLVQAGGSLRLSCAASGSIFDYVSMGWYRQAPGEERELVVTITLGSNTYYADSVKGRFTISSDIAKNTVYLQMNSLNPEDTAVYYCAASALWGYVYPYWGLGTQVTVSS | high polyreactivity
8 | QVQLVEAGGGLVQAGGSLRLSCAASGGIFSTYTMRWYRQAPGKERELVAAITTGNSTYYADSVKVRFTISRDNAKNTVYLQMNSLKPEDSAVYYCAAFADSRDYYRRLIHDGYDYWGQGTQVTVSS | low polyreactivity
9 | QVQLVESGGGLVQAGGSLRLSCAASGSTFSKYVMGWYRQATGKERELVAAISGGDRTYYADSVKGRFTISRDNAKNTVYLQMNSLKPEDTAVYYCAAEVLKTRWSYDYWGQGTQVTVSS | high polyreactivity
10 | QVQLVESGGGLVQAGASLRLSCAASGRTFAYNAMGWSRQAPGKERELVATISNGGTTNYADSVKGRFTISRDNAKNTVYLQMNSLKPEDTAVYYCNRRSYTQVLMDYWGQGTQVTVSS | high polyreactivity
11 | QVQLVESGGGLVQAGGSLRLSCAASGYIFYGYAMGWYRQAPGKERELVAAITGDGASTNYADSVKGRFTISRDNAKNTVYLQMNSLKPEDTAVYYCNAGRESDDVYEGSQRIGQFDYWGQGTQVTVSS | low polyreactivity
12 | QVQLVESGGGLVQAGGSLRLSCAASGSIFAGYAMGWYRQAPGKDRELVAAINWTGDSTYYADSVKGRFTNSRDNAKNTVYLQMNSLKQEDTAVYYCAAIRRQKGLWDYYYWGQGTQVTVSS | low polyreactivity
13 | QVQLVESGGGLVQAGGSLRLSCAASGRTFTTNAMGWYRQAPGKERELVAAITIGDDTYYADSVKGRFTISRDNAKNTVYLQMNSLKPEDTEVYYCSADYKRVPFVTQYVSKDGYWGHGTQVTVSS | low polyreactivity
14 | QVQLVESGGGLVQAGGILRLSCAASGYNFKYYAMGWYRQAPGKERELVAAISRSGGSTYYADSVKGRFTISRDNAKNTVYLQMNSLTPEDTAVYYCAAYTHYAYGHDYWGQGTQVTVSS | high polyreactivity
15 | QVQLVESGGGLVQAGGSLRLSCAASGSIFSYYAMGWYRQAPGKERELVAAISWSGGRTYYADSVKGRFTISRDNAKNTVYLQMNSLKPEDTAVYYCNVDVYVVPHYDYWGQGTQVTVSS | high polyreactivity
16 | QVQLVESGGGLVQAGGSLRLSCAASGSILQINPMGWYRPAPAKERDLVAANDWGGGDTYYADSVKGRFTIARDNAKNTVYVQMISLKTEDTAVYYCAAEGVSWYVWDFYDIYGYWGHGTQVTVSS | high polyreactivity
17 | QVQLVESGGGIVQAGGTLRLSCAPYGSNYYAMACYRQAPGKDRDFVAAITTRGGGTYYADSVKGRFTISRDNAQNTVYLQMFSLKPVDTAVYVCAAEDYRPRTYVYRYRYYYWGQGTQVTVSS | high polyreactivity
18 | QVQLVESGGGLVQAGGSLRLSCAASGRIFTSYAMGWYRQAPGKERELVAAISRRGDSTYYADSVKGRFTISRDNAKNTVYLQMNSLKPEDTAVYYCNARSSRIWDYYGFDYWGQGTQVTVSS | high polyreactivity
19 | QVHLVESGGGLDQAGGTLRLSCAATGSIIQSYAMGWYRQAPGKESELVAAITARGTSTYYADSVKGRFTISRDNAKNTVYLQMNSLKPEETAVYYCTTDRSRSPGDVECQSDIKRDYWGQGTQVTVSS | low polyreactivity
20 | QVKLVESAGGLVQAGGSLRLSCPASGIIFGLYTMGWYRQAPGKERELVAAISDSGGRTYYADSVKGRFTISRDNVKNTVYFQMNSRKPADTAVYYCATRWPNYGGYYYWGLGTQVTVSS | high polyreactivity
21 | QVQLVESGGGLVQAGGSLRLSCAASGFTFSRYAMGWYRQAPGKERELVAAITLGGGNTYYADSVKGRFTISRDNAKYSVYLQMNSLKREDTSVYYCNAKFGIFGYRSGGYDYWGEGTQVTVSS | high polyreactivity
22 | QVQLVESGGGLVQAGGSLRLSCAASGSTFDNYAMGWYRQAPGKERELVAAISYSGGSTHYADSVKGRFTISRDNAKNTVYLQMNSLKPEDTAVYYCAADVSGDKGSIHMNYWGQGTQVTVSS | low polyreactivity

Row | Sequence | polyreactivity (PSR sort gate)
23 | QVQLVESGGGLVQAGGSLRLSCAASASTFGSYAMGWYRQAPGKERELVAAISRAGSTYADSVKGRFTISRDNAKNTVYLQMNSLKTEDTAVYYCAKRDYALYYGYDYWGQGTQVTVSS | low polyreactivity
24 | QVQLVESGGGLVQAGGSLRLSCAASGRTSQINAMGWYIQAPGKERELVAAITRGGGITYYADSVKGRFTISRDNAKNTVYLQMNSLKPEDTAVYYCATRGSSFVQYRTRYGYWGQGTQVTVSS | high polyreactivity
25 | QVQLAESGGGFVQAGGTLRLTCAASGSIFTSNAMGWFRQAPGKERELVAPSSWRGTSTYYADSVKGRYTISRDNAKTTVYLQMNSLKPVDTAVYYCAKYRRFRPYGSNGIYDYWGQGTQVTVSS | high polyreactivity
26 | QVQLVESGGGLVQAGGSLRLSCAASGRIFNGYAMGWYRQAPGKERELVAAISKSGTRTYYADSVKGRFTISRDNAKNTVYLQMTSLKPEDTAVYYCNARVYRYDTYNEYYYWGQGTQVTVSS | high polyreactivity
27 | QVQLVESGGGLVQAGGSLRLSCAASGRIFINNAMGWYRQAPGKERELVAAINTGGGTNYADSVKGRFTISRDNAKNTVYLEMNSLKPEDSAVYYCAARTYDFRARHKDGYWGQGTQVTVSS | high polyreactivity
28 | QVQHVESGGGLVQAGGTLRLSCAASGSIFFWYGMGRYRQAPGKERELVAAITSGGISYYADSVKGRFTISRDNAKNTVYFQMNSLKPEDTAVYYCATRTYTYWGGSYPHYYWGQGSQVTVSS | high polyreactivity
29 | QVQLVESGGGVVQAGGSLRLSCAASGRTIWSNAMGWYRQAPGKERELVAAISRTGGRTYYADSVKGRFTISRDNAKNTVYLQMNSLKREDTAVYYCATGSGVYDYWGQGTQLTVSS | high polyreactivity
30 | QVQLVESGVGLVQAGGSLRLSCAASGRIFRLYAMGWYRQAPGKERELVAAISSSGGDTYYADSVKGRFTISRDNAKNTVYLQMNSLKPEDTAVYDCNARKRYANVHYNYWGQGTQVTVSS | high polyreactivity
31 | QVQLVESGGGLVQAGGSLRLSCAASGGIFYYYAMGWYRQAPGKERELVAAISWSGGSTYYADSVKGRFTISRDNAKNTVYLQMNSLKPEDPAVYYCAPYSDFHYAQLEYDYWGQGTQVTVSS | low polyreactivity
32 | HVQLVDSGGGLVQAGGSLRLSCAASGYTFKYNTMGWYRQAPGKERDLVAAITRSGGSTYYADSVKGRFTISRDNAKNTVYLQMNSLKPEDTAVYYCAARAAYKQPVSFDYWGQGTQVTVSS | high polyreactivity
33 | QDQLVESGGGLVQAGASLRLSCAASGSIICLYAMGWYRQAPGKERELVARITRSGGRTYYADSVKGRFTISRDNAKNTVYLQTNSLKPEDTAVYYCNAYGPNIYSSRYDYWGQGTQVSVSS | low polyreactivity
34 | QVQLVESGGGLVQAGGSLRLSCAASGFIFTSYAMGWYRQAPGKERELVAAITDGGSTNYADSVKGRFTISRDNAKNTVYLQMNSLKPEDTAVYYCAADGFKTVLPEYDYWGQGTQVTVSS | low polyreactivity
35 | QVQQQESGGVLVHAGGSLRLSCAASGTISPLPAMGWYRQAPGKEREFVAGIDTGAISNYADSVKGRFTISRDNAKNTVYLQMNSLKPEDTAVYYCAVFPAAYEYYVRYYTYWGQGTQVTVSS | low polyreactivity
36 | QVQLVESGGGLVQAGGSLRLSCAASGRIFYLNVMGWYRQAPGKERELVAAITRRDVTTYADSVKGRFTISRDNAKNTVYLQMNSLKPEDTAVYYCNAVYYNWIGFDYWGQGTQVSVSS | low polyreactivity
37 | QVQLVESGGGLVQAGGSLRLSCAASGITFRGYAMGWYRQAPGKERELVADITWNGGSTYYADSVKGRFTISRDNAKNTVYLQMNSLKPEDPAVYYCAADGYRIYWSSYRFYYWGQGTQVTVSS | high polyreactivity
38 | QVQLVESGGGLVQAGGSLRLSCAASGSTFSVNAMGWYRQAPGKEREFVAAIRWPGGSTYYADSVKGRFTFSRDKAKNTVYLQMNSLKPEDTAVYYCAARIKYRYDWGQGTQVTVSS | low polyreactivity
39 | QVQLVESGGGLVQAGGSLRLSCAASGSIFIVYAMGWYRQAPGKERELVAAISWSGGSTYYADSVKGRFTISRDNAKNTVYLQMNSLKPEDTAVYYCAAKYTLPFRDVKYYSWGQGTQVTVSS | high polyreactivity
40 | QVQLVESGGGLVQAGGSLRLSCAASGSIFVGNAMGWYRPAPGKERELVAAITGRGSRTYYADSVKGRFTLSRDNAKNTVYLQMNSLKPEDTAVYYCAARYTNYGGFYWGQGTQVTVSS | high polyreactivity
41 | QVQLVESGGGLVQAGGSLRLSCAASGLIFRYNAMGWYRQAPGKERELVASITSDGSTNYADSVKGRFTISRDNAKNTVYLQMNSLKPEDTAVYYCAADGYTYCYYQLIPDYDYWGQGTQVTVSS | low polyreactivity
42 | QVQLVESGGGLVQAGGSLRLSCAASGRIFTYYAMGWYRQAPGKERELVAAISYSGSSTYYADSVKGRFTISRDNAKNTVYLQMNSLKPEDTAVYYCAAAPSGHYLAYGYWGQGTQVTVSS | high polyreactivity
43 | QVQLVDSGGGLVQAGGTLRLSCAASGRIFYRYAMGWYRQAPGKERELVASITRSGITHYADSVKGRFTISRDNAKNTVYLQMNSLKPEDTAVYYCKARRGSPAPYDYWGQGTQVTVSS | high polyreactivity
